The values below come from patent US20220073617A1 (Five Prime, published 2022).

In test [1] the target is T1, monovalent hVISTA-ECD (human VISTA extracellular domain with His tail) (human, UniProt Q9H7M9 33-193).
T1 construct: analyte flowed over captured antibody; also called huVISTA-His
As to the kind of experiment: SPR. The procedure: (§1) Binding of several preparations of each of the '029 progeny clones and of the parent '029 antibodies, formatted as IgG1.3 antibodies, to human VISTA at pH 6.0 and 7.4 was measured by Surface plasmon resonance (SPR). SPR analysis was performed to measure koff and KD binding affinity measurements for VISTA Abs at acidic and neutral pHs using a Biacore® T100 instrument (GE Healthcare). Protein A (ThermoFisher Scientific catalog #21181) was diluted to 20 ug/ml in 10 mM sodium acetate pH 4.5 and immobilized onto flow cells of a CM5 biosensor following the manufacturer's amine coupling protocol (GE Healthcare), targeting 2,000 RU immobilization density of Protein A per flow cell. SPR experiments were conducted at 37° C. using PBST (137 mM sodium chloride, 2.7 mM potassium chloride, 10 mM phosphate buffer, 0.05% Tween® 20) running buffer at pH 7.4 and 6.0. Antibodies were diluted to 25 nM in PBST pH 7.4, and were captured across active biosensor flow cells at 5 ul/min for 60 seconds. […] Two 15 second injections of 10 mM glycine pH 1.5 were used to regenerate the Protein A capture surface between assay cycles. Rate constants ka (kₒₙ) and kd (koff) were derived from reference flow cell and 0 nM blank-subtracted sensorgrams, and were fit to a 1:1 binding model in Biacore® T200 Evaluation Software v.2.0. The affinity constant, KD was calculated as the ratio of rate constants koff/kₒₙ for each VISTA antibody. […]

In test [2] the target is T1, monovalent hVISTA-ECD (human VISTA …). As to the kind of experiment: SPR, pH 6.0. The procedure:
as §1

The target is the same in test [3]. The test is described as follows: SPR, pH 7.4. The procedure:
as §1

T1 sequence (Q9H7M9 other isoform, or with tags, fused parts or gaps limits assumed): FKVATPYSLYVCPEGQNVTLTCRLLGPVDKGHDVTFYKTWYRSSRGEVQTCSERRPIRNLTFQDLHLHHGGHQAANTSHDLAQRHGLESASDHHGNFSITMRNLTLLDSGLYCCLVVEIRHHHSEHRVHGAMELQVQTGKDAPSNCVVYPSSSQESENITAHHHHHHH

B1: P1-064472 (41F11_VH_F27E) (antibody, V domains shown)
VH: QVQLVESGGGLVKPGGSLRLSCAASGETFSDYYMSWIRQAPGKGLEWVSYISNSGSPIYYADSVKGRFTISRDNAKNSLYLQMNSLRAEDTAVYYCARDLPGWYFDLWGRGTLVTVSS
VL: EIVLTQSPATLSLSPGERATLSCRASQSVSSYLAWYQQKPGQAPRLLIYDASNRATGIPARFSASGSGTDFTLTISSLEPEDFAVYYCQQRNNWPRTFGQGTKVEIK
notes: Kabat positions; also called P1-064472-1
In the case of B1, the “KD ratio (pH 7.4/pH 6.0)” value in test [1] was determined as 0.2. In addition, in test [2], binding was put at a Kd of 0.018 µM, the koff was 0.0411 s⁻¹ and the kon was 2.29e+06 M⁻¹ s⁻¹. In addition, in test [3], binding was put at a Kd of 0.0036 µM, the koff was 0.000987 s⁻¹ and the on-rate (kon) is 274000 M⁻¹ s⁻¹.

B2: P1-064478 (41F11_VH_Y50E) (antibody, V domains shown)
VH: QVQLVESGGGLVKPGGSLRLSCAASGFTFSDYYMSWIRQAPGKGLEWVSEISNSGSPIYYADSVKGRFTISRDNAKNSLYLQMNSLRAEDTAVYYCARDLPGWYFDLWGRGTLVTVSS
VL: EIVLTQSPATLSLSPGERATLSCRASQSVSSYLAWYQQKPGQAPRLLIYDASNRATGIPARFSASGSGTDFTLTISSLEPEDFAVYYCQQRNNWPRTFGQGTKVEIK
notes: Kabat positions; also called P1-064478-1
Take B2: in test [1], the “KD ratio (pH 7.4/pH 6.0)” value came out at 0.07. In test [2], this molecule had a Kd of 0.0965 µM, a koff of 0.0121 s⁻¹ and a kon of 126000 M⁻¹ s⁻¹. For the same molecule, in test [3], the Kd was determined as 0.00689 µM, the koff is 0.000381 s⁻¹ and the kon is 55400 M⁻¹ s⁻¹.

B3: P1-064534 (41F11_VH_D31E/S35Y/Y50W/S55E/A60H/Y100E/F100aG) (antibody, V domains shown)
VH: QVQLVESGGGLVKPGGSLRLSCAASGFTFSEYYMYWIRQAPGKGLEWVSWISNSGEPIYYHDSVKGRFTISRDNAKNSLYLQMNSLRAEDTAVYYCARDLPGWEGDLWGRGTLVTVSS
VL: EIVLTQSPATLSLSPGERATLSCRASQSVSSYLAWYQQKPGQAPRLLIYDASNRATGIPARFSASGSGTDFTLTISSLEPEDFAVYYCQQRNNWPRTFGQGTKVEIK
notes: Kabat positions; also called P1-064534-1
For the molecule B3, the “KD ratio (pH 7.4/pH 6.0)” value in test [1] was found to be 1.79. In test [2], the Kd was determined as 0.00905 µM, the off-rate (koff) came out at 0.00649 s⁻¹ and the on-rate constant (kon) was 717000 M⁻¹ s⁻¹. In test [3], the Kd was determined as 0.0162 µM, the koff came to 0.000675 s⁻¹ and the kon came to 41700 M⁻¹ s⁻¹.

B4: P1-064516 (41F11_Vk_V29D/A64G/R91T/R96Y) (antibody, V domains shown)
VH: QVQLVESGGGLVKPGGSLRLSCAASGFTFSDYYMSWIRQAPGKGLEWVSYISNSGSPIYYADSVKGRFTISRDNAKNSLYLQMNSLRAEDTAVYYCARDLPGWYFDLWGRGTLVTVSS
VL: EIVLTQSPATLSLSPGERATLSCRASQSDSSYLAWYQQKPGQAPRLLIYDASNRATGIPARFSGSGSGTDFTLTISSLEPEDFAVYYCQQTNNWPYTFGQGTKVEIK
notes: also called P1-064516-1
As to B4, the “KD ratio (pH 7.4/pH 6.0)” value in test [1] was 2.45. For the same molecule, in test [2], binding was characterised by a dissociation constant (Kd) of 0.00781 µM, the koff is 0.0178 s⁻¹ and the kon is 2.28e+06 M⁻¹ s⁻¹. In test [3], this molecule showed a Kd of 0.0191 µM, an off-rate (koff) of 0.00223 s⁻¹ and an on-rate (kon) of 117000 M⁻¹ s⁻¹.

B5: P1-064528 (41F11_VH_D31E/Y50W/S55E/L96E/Y100E) (antibody, V domains shown)
VH: QVQLVESGGGLVKPGGSLRLSCAASGFTFSEYYMSWIRQAPGKGLEWVSWISNSGEPIYYADSVKGRFTISRDNAKNSLYLQMNSLRAEDTAVYYCARDEPGWEFDLWGRGTLVTVSS
VL: EIVLTQSPATLSLSPGERATLSCRASQSVSSYLAWYQQKPGQAPRLLIYDASNRATGIPARFSASGSGTDFTLTISSLEPEDFAVYYCQQRNNWPRTFGQGTKVEIK
notes: Kabat positions; also called P1-064528-1
On to B5, for which the “KD ratio (pH 7.4/pH 6.0)” value in test [1] worked out at 4.6. Besides, in test [2], the Kd was 0.000167 µM, the dissociation rate constant (koff) turned out to be 0.000584 s⁻¹ and the kon was found to be 3.49e+06 M⁻¹ s⁻¹. In test [3], this molecule had a Kd of 0.000768 µM, a koff of 0.000227 s⁻¹ and an on-rate constant (kon) of 296000 M⁻¹ s⁻¹.

B6: P1-064486 (41F11_VH_F100aG) (antibody, V domains shown)
VH: QVQLVESGGGLVKPGGSLRLSCAASGFTFSDYYMSWIRQAPGKGLEWVSYISNSGSPIYYADSVKGRFTISRDNAKNSLYLQMNSLRAEDTAVYYCARDLPGWYGDLWGRGTLVTVSS
VL: EIVLTQSPATLSLSPGERATLSCRASQSVSSYLAWYQQKPGQAPRLLIYDASNRATGIPARFSASGSGTDFTLTISSLEPEDFAVYYCQQRNNWPRTFGQGTKVEIK
notes: Kabat positions; also called P1-064486-1
As to B6, the “KD ratio (pH 7.4/pH 6.0)” value in test [1] amounted to 0.45. Besides, in test [2], binding was characterised by a dissociation constant (Kd) of 0.0343 µM, the koff came to 0.105 s⁻¹ and the kon turned out to be 3.07e+06 M⁻¹ s⁻¹. In test [3], the Kd worked out at 0.0153 µM, the koff worked out at 0.00341 s⁻¹ and the on-rate (kon) was 223000 M⁻¹ s⁻¹.

B7: P1-064480 (41F11_VH_A60H) (antibody, V domains shown)
VH: QVQLVESGGGLVKPGGSLRLSCAASGFTFSDYYMSWIRQAPGKGLEWVSYISNSGSPIYYHDSVKGRFTISRDNAKNSLYLQMNSLRAEDTAVYYCARDLPGWYFDLWGRGTLVTVSS
VL: EIVLTQSPATLSLSPGERATLSCRASQSVSSYLAWYQQKPGQAPRLLIYDASNRATGIPARFSASGSGTDFTLTISSLEPEDFAVYYCQQRNNWPRTFGQGTKVEIK
notes: Kabat positions; also called P1-064480-1
Consider B7, for which, in test [1], the “KD ratio (pH 7.4/pH 6.0)” value is 0.17. Besides, in test [2], the Kd was determined as 0.0142 µM, the koff is 0.0329 s⁻¹ and the kon amounted to 2.32e+06 M⁻¹ s⁻¹. In test [3], this molecule displayed a Kd of 0.00236 µM, a koff of 0.000755 s⁻¹ and a kon of 320000 M⁻¹ s⁻¹.

B8: P1-064500 (41F11_Vk_Q90DA64G) (antibody, V domains shown)
VH: QVQLVESGGGLVKPGGSLRLSCAASGFTFSDYYMSWIRQAPGKGLEWVSYISNSGSPIYYADSVKGRFTISRDNAKNSLYLQMNSLRAEDTAVYYCARDLPGWYFDLWGRGTLVTVSS
VL: EIVLTQSPATLSLSPGERATLSCRASQSVSSYLAWYQQKPGQAPRLLIYDASNRATGIPARFSGSGSGTDFTLTISSLEPEDFAVYYCQDRNNWPRTFGQGTKVEIK
notes: also called P1-064500-1
Regarding B8, the “KD ratio (pH 7.4/pH 6.0)” value in test [1] was 0.48. Also, in test [2], the Kd is 0.0941 µM, the koff was found to be 0.157 s⁻¹ and the kon was determined as 1.67e+06 M⁻¹ s⁻¹. Moreover, in test [3], the Kd was 0.0447 µM, the koff was 0.0145 s⁻¹ and the kon turned out to be 325000 M⁻¹ s⁻¹.

B9: P1-064502 (41F11_Vk_R96YA64G) (antibody, V domains shown)
VH: QVQLVESGGGLVKPGGSLRLSCAASGFTFSDYYMSWIRQAPGKGLEWVSYISNSGSPIYYADSVKGRFTISRDNAKNSLYLQMNSLRAEDTAVYYCARDLPGWYFDLWGRGTLVTVSS
VL: EIVLTQSPATLSLSPGERATLSCRASQSVSSYLAWYQQKPGQAPRLLIYDASNRATGIPARFSGSGSGTDFTLTISSLEPEDFAVYYCQQRNNWPYTFGQGTKVEIK
notes: also called P1-064502-1
B9: the “KD ratio (pH 7.4/pH 6.0)” value in test [1] amounted to 0.5. Besides, in test [2], the equilibrium dissociation constant (Kd) is 0.0817 µM, the koff came to 0.332 s⁻¹ and the kon was determined as 4.06e+06 M⁻¹ s⁻¹. Also, in test [3], the dissociation constant (Kd) came out at 0.0408 µM, the koff was determined as 0.0123 s⁻¹ and the on-rate (kon) came to 301000 M⁻¹ s⁻¹.

B10: P1-064484 (41F11_VH_L96E) (antibody, V domains shown)
VH: QVQLVESGGGLVKPGGSLRLSCAASGFTFSDYYMSWIRQAPGKGLEWVSYISNSGSPIYYADSVKGRFTISRDNAKNSLYLQMNSLRAEDTAVYYCARDEPGWYFDLWGRGTLVTVSS
VL: EIVLTQSPATLSLSPGERATLSCRASQSVSSYLAWYQQKPGQAPRLLIYDASNRATGIPARFSASGSGTDFTLTISSLEPEDFAVYYCQQRNNWPRTFGQGTKVEIK
notes: Kabat positions; also called P1-064484-1
Take B10: the “KD ratio (pH 7.4/pH 6.0)” value in test [1] was found to be 3.64. In test [2], this molecule yielded a Kd of 0.00718 µM, an off-rate (koff) of 0.0153 s⁻¹ and an on-rate constant (kon) of 2.13e+06 M⁻¹ s⁻¹. In test [3], the Kd is 0.0261 µM, the koff worked out at 0.00353 s⁻¹ and the kon came to 135000 M⁻¹ s⁻¹.

B11: P1-064526 (41F11_VH_D31E/Y50W/S55E/A60H/Y100E) (antibody, V domains shown)
VH: QVQLVESGGGLVKPGGSLRLSCAASGFTFSEYYMSWIRQAPGKGLEWVSWISNSGEPIYYHDSVKGRFTISRDNAKNSLYLQMNSLRAEDTAVYYCARDLPGWEFDLWGRGTLVTVSS
VL: EIVLTQSPATLSLSPGERATLSCRASQSVSSYLAWYQQKPGQAPRLLIYDASNRATGIPARFSASGSGTDFTLTISSLEPEDFAVYYCQQRNNWPRTFGQGTKVEIK
notes: Kabat positions; also called P1-064526-1
As to B11, the “KD ratio (pH 7.4/pH 6.0)” value in test [1] is 0.8. In test [2], this molecule came in with a Kd of 0.000245 µM, a koff of 0.00094 s⁻¹ and a kon of 3.84e+06 M⁻¹ s⁻¹. For the same molecule, in test [3], the equilibrium dissociation constant (Kd) was determined as 0.000196 µM, the off-rate (koff) is 0.000109 s⁻¹ and the kon came to 555000 M⁻¹ s⁻¹.

B12: P1-064494 (41F11_Vk_A25EA64G) (antibody, V domains shown)
VH: QVQLVESGGGLVKPGGSLRLSCAASGFTFSDYYMSWIRQAPGKGLEWVSYISNSGSPIYYADSVKGRFTISRDNAKNSLYLQMNSLRAEDTAVYYCARDLPGWYFDLWGRGTLVTVSS
VL: EIVLTQSPATLSLSPGERATLSCRESQSVSSYLAWYQQKPGQAPRLLIYDASNRATGIPARFSGSGSGTDFTLTISSLEPEDFAVYYCQQRNNWPRTFGQGTKVEIK
notes: also called P1-064494-1
Regarding B12, the “KD ratio (pH 7.4/pH 6.0)” value in test [1] was 0.29. In test [2], this molecule yielded a Kd of 0.0356 µM, a koff of 0.0485 s⁻¹ and an on-rate constant (kon) of 1.36e+06 M⁻¹ s⁻¹. In test [3], this molecule registered a Kd of 0.0103 µM, a koff of 0.00207 s⁻¹ and a kon of 200000 M⁻¹ s⁻¹.
